This is an account of results in article PMC4355727.

This assay addresses FLAG-tagged Rab32 T39N (UniProt Q13637). The experiment in a line: co-IP.
Sequence of UniProt Q13637 (Q13637 whole entry T39N): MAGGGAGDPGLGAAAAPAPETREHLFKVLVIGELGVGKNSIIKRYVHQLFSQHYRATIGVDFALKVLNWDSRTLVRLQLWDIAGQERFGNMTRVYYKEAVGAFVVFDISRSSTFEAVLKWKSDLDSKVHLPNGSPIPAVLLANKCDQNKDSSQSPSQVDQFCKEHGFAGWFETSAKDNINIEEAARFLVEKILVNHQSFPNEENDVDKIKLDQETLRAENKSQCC

HA-tagged Drp1 S656A (natural protein): the fraction of the interaction detected with active Rab32 Q85L was found to be 0.25.
